Patent publication US20090196913A1 (published 2009)

Biological target: human αVβ3/5 integrins on human tumor cells (A375.S2, MDA-MB-231, A2780, HT29, A549) (human, UniProt P06756 31-1048)
Experiment: cell-based or functional assay

Chain of human αVβ3/5 integrins on human tumor cells (A375.S2, MDA-MB-231, A2780, HT29, A549) (P06756 31-1048): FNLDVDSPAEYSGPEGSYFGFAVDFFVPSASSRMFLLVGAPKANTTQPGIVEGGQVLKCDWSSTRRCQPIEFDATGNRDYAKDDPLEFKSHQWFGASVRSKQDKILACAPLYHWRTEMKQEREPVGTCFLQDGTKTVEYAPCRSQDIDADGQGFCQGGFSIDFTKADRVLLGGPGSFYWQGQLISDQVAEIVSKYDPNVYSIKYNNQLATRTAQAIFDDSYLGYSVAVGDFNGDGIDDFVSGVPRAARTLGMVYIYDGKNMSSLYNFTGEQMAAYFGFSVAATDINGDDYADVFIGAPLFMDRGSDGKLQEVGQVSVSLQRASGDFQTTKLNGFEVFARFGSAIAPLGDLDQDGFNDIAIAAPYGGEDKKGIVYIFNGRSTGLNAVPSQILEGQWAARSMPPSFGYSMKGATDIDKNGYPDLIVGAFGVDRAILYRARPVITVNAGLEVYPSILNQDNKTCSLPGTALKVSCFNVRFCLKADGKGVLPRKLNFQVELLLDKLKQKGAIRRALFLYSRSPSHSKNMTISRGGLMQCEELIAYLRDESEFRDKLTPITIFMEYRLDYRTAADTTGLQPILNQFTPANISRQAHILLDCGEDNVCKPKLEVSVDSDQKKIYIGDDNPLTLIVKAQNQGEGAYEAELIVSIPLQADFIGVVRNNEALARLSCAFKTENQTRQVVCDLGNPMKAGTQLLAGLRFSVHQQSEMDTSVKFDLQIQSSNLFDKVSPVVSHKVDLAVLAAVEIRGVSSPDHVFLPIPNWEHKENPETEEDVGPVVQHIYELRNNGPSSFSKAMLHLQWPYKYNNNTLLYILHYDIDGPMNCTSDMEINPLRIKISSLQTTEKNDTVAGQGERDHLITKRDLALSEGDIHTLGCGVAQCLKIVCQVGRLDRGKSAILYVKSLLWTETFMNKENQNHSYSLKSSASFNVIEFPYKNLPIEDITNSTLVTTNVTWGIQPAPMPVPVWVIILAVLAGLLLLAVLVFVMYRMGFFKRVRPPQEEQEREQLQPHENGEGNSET

B1: CNTO95 Fab′ (from pepsin cleavage, reduction and reoxidation) conjugated to PEG-DSPE on the surface of liposomes (Fab, V domains shown)
VH: QVQLVESGGGVVQPGRSRRLSCAASGFTFSRYTMHWVRQAPGKGLEWVAVISFDGSNKYYVDSVKGRFTISRDNSENTLYLQVNILRAEDTAVYYCAREARGSYAFDIWGQGTMVTVSS
VL: EIVLTQSPATLSLSPGERATLSCRASQSVSSYLAWYQQKPGQAPRLLIYDASNRATGIPARFSGSGSGTDFTLTISSLEPEDFAVYYCQQRSNWPPFTFGPGTKVDIKR
modifications: free sulfhydryl near the C-terminus conjugated to maleimide-PEG-DSPE inserted in the liposome
  Increase (ratio of IC50 of liposome-entrapped doxorubicin to IC50 of 90:1 integrin-targeted liposomes), breast cancer MDA-MB-231: 5
  Increase (ratio of IC50 of liposome-entrapped doxorubicin to IC50 of 90:1 integrin-targeted liposomes), colon cancer HT29: 1.1
  Increase (ratio of IC50 of liposome-entrapped doxorubicin to IC50 of 90:1 integrin-targeted liposomes), lung cancer A549: 1
  Increase (ratio of IC50 of liposome-entrapped doxorubicin to IC50 of 90:1 integrin-targeted liposomes), melanoma A375.S2: 29
  Increase (ratio of IC50 of liposome-entrapped doxorubicin to IC50 of 90:1 integrin-targeted liposomes), ovarian cancer A2780: 29
